{
  "source": "patent US20260209386A1",
  "about": "(MYTHIC THERAPEUTICS, published 2026)",
  "binders": {"B1": {"name": "MYT11115 (antibody, V domains shown)", "VH": "EVQLVESGGGLVQPGGSLRLSCTASGFSLSTYAMSWVRQAPGKGLEWVGMIYHNDNTYYASWAKGRFTISRDTSKNTVYLQMNSLRAEDTAVYFCARDIGISYYIGVSLWGQGTLVTVSS", "VL": "EIVMTQSPSTLSASVGDRVIITCQASQSIGTRLSWYQQKPGKAPKLLIYGASKLATGVPSRFSGSGSGAEFTLTISSLQPDDFATYYCLGEYSYTTTDGIAFGQGTKLTVL", "notes": "IgG"}, "B2": {"name": "MYT11117 (antibody, V domains shown)", "VH": "B1 VH with H53I, D55H", "VL": "B1 VL", "notes": "IgG"}, "B3": {"name": "MYT11120 (antibody, V domains shown)", "VH": "B1 VH with H53I, Y58H", "VL": "B1 VL", "notes": "IgG"}, "B4": {"name": "MYT11134 (antibody, V domains shown)", "VH": "B1 VH with H53I, S102H", "VL": "B1 VL", "notes": "IgG"}, "B5": {"name": "MYT11136 (antibody, V domains shown)", "VH": "B1 VH with H53I, Y104H", "VL": "B1 VL", "notes": "IgG"}, "B6": {"name": "MYT11137 (antibody, V domains shown)", "VH": "B1 VH with H53I, I105H", "VL": "B1 VL", "notes": "IgG"}, "B7": {"name": "MYT11146 (antibody, V domains shown)", "VH": "B1 VH with H53I", "VL": "B1 VL with A25H", "notes": "IgG"}, "B8": {"name": "MYT11150 (antibody, V domains shown)", "VH": "B1 VH with H53I", "VL": "B1 VL with I29H", "notes": "IgG"}, "B9": {"name": "MYT11151 (antibody, V domains shown)", "VH": "B1 VH with H53I", "VL": "B1 VL with G30H", "notes": "IgG"}, "B10": {"name": "MYT11152 (antibody, V domains shown)", "VH": "B1 VH with H53I", "VL": "B1 VL with T31H", "notes": "IgG"}, "B11": {"name": "MYT11153 (antibody, V domains shown)", "VH": "B1 VH with H53I", "VL": "B1 VL with R32H", "notes": "IgG"}, "B12": {"name": "MYT11163 (antibody, V domains shown)", "VH": "B1 VH with H53I", "VL": "B1 VL with L89H", "notes": "IgG"}, "B13": {"name": "MYT11166 (antibody, V domains shown)", "VH": "B1 VH with H53I", "VL": "B1 VL with Y92H", "notes": "IgG"}, "B14": {"name": "MYT11172 (antibody, V domains shown)", "VH": "B1 VH with H53I", "VL": "B1 VL with D98H", "notes": "IgG"}, "B15": {"name": "MYT11180 (antibody, V domains shown)", "VH": "EVQLVESGGGLVQPGGSLRLSCTASHIDLSSYVMGWVRQAPGKGLEWVGYIYGGGGTYYATWARGRFTISRDTSKNTVYLQMNSLRAEDTAVYFCARAAADFYFNLWGQGTLVTVSS", "VL": "EIVMTQSPSTLSASVGDRVIITCQASQSISSYLAWYQQKPGKAPKLLIYDISDLASGVPSRFSGSGSGAEFTLTISSLQPDDFATYYCQSYYWISNSGAAFGQGTKLTVL", "notes": "IgG"}, "B16": {"name": "MYT11182 (antibody, V domains shown)", "VH": "B15 VH with H26G, D28H", "VL": "B15 VL", "notes": "IgG"}, "B17": {"name": "MYT11184 (antibody, V domains shown)", "VH": "B15 VH with H26G, S30H", "VL": "B15 VL", "notes": "IgG"}, "B18": {"name": "MYT11192 (antibody, V domains shown)", "VH": "B15 VH with H26G, Y52H", "VL": "B15 VL", "notes": "IgG"}, "B19": {"name": "MYT11193 (antibody, V domains shown)", "VH": "B15 VH with H26G, G53H", "VL": "B15 VL", "notes": "IgG"}, "B20": {"name": "MYT11194 (antibody, V domains shown)", "VH": "B15 VH with H26G, G54H", "VL": "B15 VL", "notes": "IgG"}, "B21": {"name": "MYT11195 (antibody, V domains shown)", "VH": "B15 VH with H26G, G55H", "VL": "B15 VL", "notes": "IgG"}, "B22": {"name": "MYT11196 (antibody, V domains shown)", "VH": "B15 VH with H26G, G56H", "VL": "B15 VL", "notes": "IgG"}, "B23": {"name": "MYT11197 (antibody, V domains shown)", "VH": "B15 VH with H26G, T57H", "VL": "B15 VL", "notes": "IgG"}, "B24": {"name": "MYT11210 (antibody, V domains shown)", "VH": "B15 VH with H26G, A100H", "VL": "B15 VL", "notes": "IgG"}, "B25": {"name": "MYT11213 (antibody, V domains shown)", "VH": "B15 VH with H26G, Y103H", "VL": "B15 VL", "notes": "IgG"}, "B26": {"name": "MYT11221 (antibody, V domains shown)", "VH": "B15 VH with H26G", "VL": "B15 VL with A25H", "notes": "IgG"}, "B27": {"name": "MYT11222 (antibody, V domains shown)", "VH": "B15 VH with H26G", "VL": "B15 VL with S26H", "notes": "IgG"}, "B28": {"name": "MYT11224 (antibody, V domains shown)", "VH": "B15 VH with H26G", "VL": "B15 VL with S28H", "notes": "IgG"}, "B29": {"name": "MYT11225 (antibody, V domains shown)", "VH": "B15 VH with H26G", "VL": "B15 VL with I29H", "notes": "IgG"}, "B30": {"name": "MYT11229 (antibody, V domains shown)", "VH": "B15 VH with H26G", "VL": "B15 VL with L33H", "notes": "IgG"}, "B31": {"name": "MYT11236 (antibody, V domains shown)", "VH": "B15 VH with H26G", "VL": "B15 VL with A55H", "notes": "IgG"}, "B32": {"name": "MYT11238 (antibody, V domains shown)", "VH": "B15 VH with H26G", "VL": "B15 VL with Q89H", "notes": "IgG"}, "B33": {"name": "MYT11240 (antibody, V domains shown)", "VH": "B15 VH with H26G", "VL": "B15 VL with Y91H", "notes": "IgG"}, "B34": {"name": "MYT11244 (antibody, V domains shown)", "VH": "B15 VH with H26G", "VL": "B15 VL with S95H", "notes": "IgG"}, "B35": {"name": "MYT11245 (antibody, V domains shown)", "VH": "B15 VH with H26G", "VL": "B15 VL with N96H", "notes": "IgG"}, "B36": {"name": "MYT11246 (antibody, V domains shown)", "VH": "B15 VH with H26G", "VL": "B15 VL with S97H", "notes": "IgG"}, "B37": {"name": "MYT11247 (antibody, V domains shown)", "VH": "B15 VH with H26G", "VL": "B15 VL with G98H", "notes": "IgG"}, "B38": {"name": "MYT11248 (antibody, V domains shown)", "VH": "B15 VH with H26G", "VL": "B15 VL with A99H", "notes": "IgG"}, "B39": {"name": "MYT11249 (antibody, V domains shown)", "VH": "B15 VH with H26G", "VL": "B15 VL with A100H", "notes": "IgG"}},
  "note": "Changes are numbered by the printed parent chain.",
  "data": [
    {"molecular_target": "T1, Human PTK7/CCK4 Protein, His Tag, Acro Biosystems PT7-H52H3 (human, UniProt Q13308 31-704)", "T1 construct": "bought protein; also called Human PTK7 Protein, His Tag, Acro Biosystems; not shown: His tag", "T1 sequence": "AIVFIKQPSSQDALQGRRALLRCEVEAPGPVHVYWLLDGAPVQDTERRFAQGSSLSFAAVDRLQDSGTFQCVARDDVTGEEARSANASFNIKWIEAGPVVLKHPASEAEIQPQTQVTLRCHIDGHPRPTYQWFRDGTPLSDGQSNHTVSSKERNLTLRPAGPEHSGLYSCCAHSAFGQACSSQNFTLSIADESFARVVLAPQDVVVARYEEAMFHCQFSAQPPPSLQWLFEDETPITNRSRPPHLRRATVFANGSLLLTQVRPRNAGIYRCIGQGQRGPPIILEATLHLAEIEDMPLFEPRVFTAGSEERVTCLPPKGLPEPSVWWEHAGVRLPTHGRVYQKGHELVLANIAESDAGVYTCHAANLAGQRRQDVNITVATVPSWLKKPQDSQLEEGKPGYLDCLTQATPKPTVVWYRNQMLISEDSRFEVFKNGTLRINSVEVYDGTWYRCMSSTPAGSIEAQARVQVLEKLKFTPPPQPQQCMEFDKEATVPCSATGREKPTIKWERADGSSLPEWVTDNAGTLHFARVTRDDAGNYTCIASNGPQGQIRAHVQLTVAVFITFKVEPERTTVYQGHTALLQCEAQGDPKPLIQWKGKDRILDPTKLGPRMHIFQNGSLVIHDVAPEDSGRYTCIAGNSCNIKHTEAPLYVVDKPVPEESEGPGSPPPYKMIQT", "assay": "BLI, antibody on anti-human Fc sensor, 50 nM PTK7", "values": [
      {"binder": "B1", "binding result": "binds"},
      {"binder": "B2", "binding result": "binds"},
      {"binder": "B3", "binding result": "binds"},
      {"binder": "B4", "binding result": "binds"},
      {"binder": "B5", "binding result": "binds"},
      {"binder": "B6", "binding result": "binds"},
      {"binder": "B7", "binding result": "binds"},
      {"binder": "B8", "binding result": "binds"},
      {"binder": "B9", "binding result": "binds"},
      {"binder": "B10", "binding result": "binds"},
      {"binder": "B11", "binding result": "binds"},
      {"binder": "B12", "binding result": "binds"},
      {"binder": "B13", "binding result": "binds"},
      {"binder": "B14", "binding result": "binds"},
      {"binder": "B15", "binding result": "binds"},
      {"binder": "B16", "binding result": "binds"},
      {"binder": "B17", "binding result": "binds"},
      {"binder": "B18", "binding result": "binds"},
      {"binder": "B19", "binding result": "binds"},
      {"binder": "B20", "binding result": "binds"},
      {"binder": "B21", "binding result": "binds"},
      {"binder": "B22", "binding result": "binds"},
      {"binder": "B23", "binding result": "binds"},
      {"binder": "B24", "binding result": "binds"},
      {"binder": "B25", "binding result": "binds"},
      {"binder": "B26", "binding result": "binds"},
      {"binder": "B27", "binding result": "binds"},
      {"binder": "B28", "binding result": "binds"},
      {"binder": "B29", "binding result": "binds"},
      {"binder": "B30", "binding result": "binds"},
      {"binder": "B31", "binding result": "binds"},
      {"binder": "B32", "binding result": "binds"},
      {"binder": "B33", "binding result": "binds"},
      {"binder": "B34", "binding result": "binds"},
      {"binder": "B35", "binding result": "binds"},
      {"binder": "B36", "binding result": "binds"},
      {"binder": "B37", "binding result": "binds"},
      {"binder": "B38", "binding result": "binds"},
      {"binder": "B39", "binding result": "binds"}
    ]}
  ]
}
